From doi:10.1101/2021.04.19.439022, “Bacteriophage λ RexA and RexB Functions Assist the Transition from Lysogeny to Lytic Growth” come the findings set out here.

The target of this series is T1, RexA (Bacteriophage lambda, UniProt P68924 1-279).
T1 sequence: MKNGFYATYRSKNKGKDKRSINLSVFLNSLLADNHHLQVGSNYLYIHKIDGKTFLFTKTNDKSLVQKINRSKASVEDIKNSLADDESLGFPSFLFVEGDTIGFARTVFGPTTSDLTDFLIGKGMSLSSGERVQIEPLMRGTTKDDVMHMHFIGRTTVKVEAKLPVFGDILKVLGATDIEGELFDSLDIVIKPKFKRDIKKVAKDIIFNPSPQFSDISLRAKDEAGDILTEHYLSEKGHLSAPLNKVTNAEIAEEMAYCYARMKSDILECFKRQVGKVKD
As to the kind of experiment: filter binding; 2 mM Mg2+; Filter binding: 25 mM MES pH 6.5, 2.0 mM MgCl2, 0.1 mM DTT, 0.01 mM EDTA, 40 ug/mL BSA, 30 C, 10 min, 14.5 nM unlabeled + 0.5 nM labeled DNA; SEC: Superdex 200. The note with it: protein: recombinant, tags: C-terminal 6xHis (pET21b), chain copies: 2, 5' overhang 1 nt at both ends.

B1: OR1-OR2 (dsDNA)
DNA 1: AGATCTACCGGTAGAGCTT
DNA 2: TAAGCTCTACCGGTAGATC
modifications: m5C at position 8 of upper strand and position 10 of lower strand
On to B1, for which the binding result is on record as “binds”.

B2: OR1-OR2 scrambled (dsDNA)
DNA 1: AGATCTACCGGTAGAGCTT
DNA 2: TAAGCTCTACCGGTAGATC
In the case of B2, the binding result (label: 5'-32P) is recorded as “binds”.
